In data set [1] the target is T1, AEGELpYGSLYA (Sap1 example phosphopeptide).
T1 chain: AEGELYGSLYA

For data set [2], the target named is T2, EFpYGAFA (Sap1 example phosphopeptide, A form of EFpYGAFA/G).
T2 chain: EFYGAFA

In data set [3] the target is T3, EFpYGAFG (Sap1 example phosphopeptide, G form of EFpYGAFA/G).
T3 chain: EFYGAFG

Data set [4] deals with all the clones tested (PTP-Sap1 clones as GST-peptides in the dephosphorylation assay).
For data set [5], the target named is the GST-peptide (PTP-β clone as GST fusion in the dephosphorylation assay).

B1: PTP-Sap1 wild type (GST fusion of the catalytic domain) (protein)
chain: LKRRNKKKQQKPELRDLVFSSPGDIPAEDFADHVRKNERDSNCGFADEYQQLSLVGHSQSQMVASASENNAKNRYRNVLPYDWSRVPLKPIHEEPGSDYINASFMPGLWSPQEFIATQGPLPQTVGDFWRLVWEQQSHTLVMLTNCMEAGRVKCEHYWPLDSQPCTHGHLRVTLVGEEVMENWTVRELLLLQVEEQKTLSVRQFHYQAWPDHGVPSSPDTLLAFWRMLRQWLDQTMEGGPPIVHCSAGVGRTGTLIALDVLLRQLQSEGLLGPFSFVRKMRESRPLMVQTEAQYVFLHQCILRFLQQSAQAPAEKEVPYEDVENLIYENVAAIQAHKLEV
On to B1, for which the Km entry is on record as “Km=7.6 uM” in data set [1], “Km=7.0 uM” in data set [2] and “Km=7.0 uM” in data set [3]. The “dephosphorylation assay on GST-PEP constructs” value in data set [4] is recorded as “Dephosphorylation assays showed a conserved enzymatic activity for all the clones tested (not shown)”.

B2: PTP-β wild type (GST fusion of the catalytic domain) (protein)
chain: RQKVSHGRERPSARLSIRRDRPLSVHLNLGQKGNRKTSCPIKINQFEGHFMKLQADSNYLLSKEYEELKDVGRNQSCDIALLPENRGKNRYNNILPYDATRVKLSNVDDDPCSDYINASYIPGNNFRREYIVTQGPLPGTKDDFWKMVWEQNVHNIVMVTQCVEKGRVKCDHYWPADQDSLYYGDLILQMLSESVLPEWTIREFKICGEEQLDAHRLIRHFHYTVWPDHGVPETTQSLIQFVRTVRDYINRSPGAGPTVVHCSAGVGRTGTFIALDRILQQLDSKDSVDIYGAVHDLRLHRVHMVQTECQYVYLHQCVRDVLRARKLRSEQENPLFPIYENVNPEYHRDPVYSRH
For B2, the “dephosphorylation assay on GST-PEP constructs” value in data set [5] is on record as “the dephosphorylation of the GST-peptide was weak (not shown) as compared to the same experiment on PTP-Sap1”.

For the origin of these results see patent US20060241020.
